The supplement of paper PMC10567573
± gives the standard deviation.

Test: protein stability index of a GFP-peptide fusion (GPS, HEK-293T) (PSI 1-6); higher = more stable
[1] = treatment: DMSO, c terminus: a fixed tail appended
[2] = treatment: MLN4924 1 uM, 8 h, c terminus: a fixed tail appended
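Also: 24-mer peptide tiles fused after GFP, lentivirally expressed, FACS-sorted into six equal bins by GFP/DsRed ratio, decoded by Illumina sequencing, PSI is the read-weighted mean bin number.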

CLEPLEQKLQEITRCKSSEEKKPG [TRIM39]
protein stability index [1]: 4.89 ± 0.23
protein stability index [2]: 5.08 ± 0.18

AKDPGKGELPNHPKPAGGAIPTKK [FBF1]
protein stability index [1]: 5.47 ± 0.34
protein stability index [2]: 5.65 ± 0.15

MLREPAEPVAAEPKQSGSFRYLQG [PDLIM4]
protein stability index [1]: 4.18 ± 0.12
protein stability index [2]: 4.25 ± 0.17

SVLKRPERSQEESPPGSTKRRKSM [CDC25A]
protein stability index [1]: 5.29 ± 0.29
protein stability index [2]: 5.5 ± 0.2

RAKVKTDDIARIYQPKRYALSPKT [FAM98B]
protein stability index [1]: 3.4 ± 0.26
protein stability index [2]: 3.5 ± 0.13

FKDKLEETKGQINNSIKDLTDGHF [SERPINB5]
protein stability index [1]: 4.42 ± 0.2
protein stability index [2]: 4.5 ± 0.2

YSNLLVRDFRPTDQEEIKTLERYM [TENT5C]
protein stability index [1]: 3.08 ± 0.22
protein stability index [2]: 3.35 ± 0.36

NSAIRFLRKYSFDGLDLDWEYPGS [CHIT1]
protein stability index [1]: 2.38 ± 0.28
protein stability index [2]: 2.36 ± 0.32

PPATQNTFGNSTLALGPGESLPHR [PLAGL1]
protein stability index [1]: 4.63 ± 0.34
protein stability index [2]: 4.39 ± 0.083

QGYVSDIRRFLSAFHEPQVGLIQA [DFFB]
protein stability index [1]: 2.15 ± 0.47
protein stability index [2]: 2.38 ± 0.17

PQHVSSDKEVRAASTEADKRLSRF [NLN]
protein stability index [1]: 5.3 ± 0.18
protein stability index [2]: 5.1 ± 0.22

TEQGFGEDLEDLGAVAPPVSGDLT [NFE2L1]
protein stability index [1]: 5.388 ± 0.027
protein stability index [2]: 5.26 ± 0.55

NTVERYNPQENRWHTIAPMGTRRK [KLHL20]
protein stability index [1]: 4.43 ± 0.15
protein stability index [2]: 4.59 ± 0.17

VLICVIVFIIILFIVLFATGAFS [VAMP8]
protein stability index (treatment: DMSO, c terminus: native): 4.42 ± 0.23
protein stability index (treatment: MLN4924 1 uM, 8 h, c terminus: native): 4.34 ± 0.15

LTQWKDSLVSLVLYNMDLSDDHIR [ZER1]
protein stability index [1]: 2.52 ± 0.32
protein stability index [2]: 2.31 ± 0.097

LKDGYRLDEIPDDEDLDLIPPKSV [FAM219A]
protein stability index [1]: 5.16 ± 0.15
protein stability index [2]: 5.3 ± 0.13

GFIKKFVLCPECENPETDLHVNPK [EIF5]
protein stability index [1]: 3.09 ± 0.38
protein stability index [2]: 3.29 ± 0.05

ASQCCGVHVISLHIWELSSIKNSL [PTGFR]
protein stability index [2]: 2.31 ± 0.52

SRYLGDSGLDDFFLDIDTSAVEKE [SERTAD3]
protein stability index [1]: 5.31 ± 0.12
protein stability index [2]: 4.9 ± 0.55

SLGERMNTFVRYLLKRIKKCCGMR [KCNK9]
protein stability index [1]: 3.38 ± 0.14
protein stability index [2]: 2.83 ± 0.32

RSSFANQGEICLCTSRIFVQKSIY [ALDH8A1]
protein stability index [1]: 2.03 ± 0.41
protein stability index [2]: 2.13 ± 0.24

RYDAEVVAIAQKFAALRASLVAPL [MYORG]
protein stability index [1]: 2.55 ± 0.17
protein stability index [2]: 2.01 ± 0.17

AAMLSMVKYNSCADRPFSAPWWFW [POMT2]
protein stability index [1]: 2.31 ± 0.25
protein stability index [2]: 2.1 ± 0.31

MVDSFHRTSLQYGIMCLKRLNYDR [PPFIA4]
protein stability index [1]: 1.88 ± 0.15
protein stability index [2]: 2.27 ± 0.2

RDRLRSRLEALSTERDEIEDVKCQ [TRIM15]
protein stability index [1]: 5.32 ± 0.15
protein stability index [2]: 5.44 ± 0.35

ARYIDTHNRVSKEDEDIYKLRHDL [PLK2]
protein stability index [1]: 3.75 ± 0.3
protein stability index [2]: 3.8 ± 0.13

TQSLPTASASKFPSSGPVTPQPTA [AUP1]
protein stability index [1]: 4.85 ± 0.22
protein stability index [2]: 4.78 ± 0.16

LHRTEGELQKIVQAGDKDLDGQLD [SLC25A25]
protein stability index [1]: 5.58 ± 0.21
protein stability index [2]: 5.55 ± 0.31

RLPWAGQLTKELPLSPAFFGEDGI [PBXIP1]
protein stability index [1]: 3.43 ± 0.44
protein stability index [2]: 3.49 ± 0.28

GVGAYGTVYKARDPHSGHFVALKS [CDK4]
protein stability index [1]: 2.89 ± 0.12
protein stability index [2]: 3.05 ± 0.32

RVYVSGLMKGGADLFVENMPGFPD [APMAP]
protein stability index [1]: 2.56 ± 0.34
protein stability index [2]: 2.7 ± 0.35

PLSVHRPPTSGCLGPVPREDQAEA [TSPAN10]
protein stability index [1]: 5.23 ± 0.17
protein stability index [2]: 5.1 ± 0.075

EYTLTGLKFDMKYMNFRVKACNKA [FSD1]
protein stability index [1]: 2.79 ± 0.12
protein stability index [2]: 2.77 ± 0.45
